Legend:
[1] = Maximum hemodynamic changes and total toxicity score after standard heparin reversal, cell adhesion ligand analogs, canine study; conditions: dogs, agent over 10 seconds
Procedure: In these studies, the anticoagulation-reversing agents were administered over a 10 second interval to maximize the hemodynamic effects.
Hemodynamic studies were conducted by measuring mean blood pressure (Mean BP) in mm Mercury, maximum percent changes in cardiac output (CO) and systemic oxygen consumption (VO2), and heart rate (HR) in beats per minute. Measurements and calculations were made at baseline, before administration of standard, unfractionated heparin, 3 minutes before reversal, every 30 seconds for 5 minutes after reversal.
Total toxicity scores (TTS) were developed in accordance with the method described hereinabove that reflected maximum declines in each of four parameters (MAP, CO, VO2 and HR) over the first 5 minutes after reversal.

[2] = tested on: LMWH (LHN-1, Logiparin); assay: Percent reversal of LMWH anticoagulation, agents administered at different rates, canine study; assay type: in vivo, dogs
Procedure: Anticoagulation reversal was assessed by a number of standard coagulation tests performed upon samples of venous blood in the manner described hereinabove. Measurements were made 3 minutes prior to heparin reversal (baseline) and 3 minutes, 10 minutes, and 30 minutes post-administration of the heparin reversal agent.

[3] = Hemodynamic studies and total toxicity score after LMWH reversal at different rates, canine study; conditions: dogs, Logiparin
Procedure: (§2) The anticoagulation-reversing agents were administered rapidly over 10 seconds to maximize hemodynamic effects or more slowly over a 3 minute interval. Changes in LMWH anticoagulation occurring from metabolism alone were determined in a separate group of dogs not given any reversal agent.
(§3) Hemodynamic studies were conducted by measuring mean arterial pressure (MAP) in mm Mercury, maximum percent changes in cardiac output (CO) and systemic oxygen consumption (VO2), and heart rate (HR) in beats per minute. Measurements and calculations were made at baseline, before LMWH administration, 3 minutes before reversal, every 30 seconds for 5 minutes after reversal, and at 10, 20, and 30 minutes after reversal.
(§4) TTS were developed that reflected maximum declines in each of four parameters (MAP, CO, VO2 and HR) over the first 5 minutes after reversal in the same manner as described hereinabove.

[4] = Maximum hemodynamic changes and total toxicity score after Enoxaparin reversal, canine study; conditions: dogs, agent over 10 seconds
Procedure: (§5) Seven female dogs (mean weight 15-20 kg) received intravenous standard, unfractionated heparin (150 IU/kg IV) or LMWH (Enoxaparin, Rhone-Poulac, France; 100 IU/kg factor Xa activity) followed by reversal with commercial salmine protamine (n-protamine purchased from Eli Lilly, Indianapolis, Ind., 1.5 mg/kg (100 IU/mg) IV) or an anticoagulation-reversing agent which is a protamine-like peptide variant identified hereinbelow. In these studies, the anticoagulation-reversing agents were administered over a 10 second interval to maximize the hemodynamic effects.

[5] = Percent change in platelet count after standard heparin reversal, cell adhesion ligand analogs, canine study; assay type: in vivo; conditions: dogs, agent over 10 seconds
Procedure: In addition to hemodynamic changes, Table 15 lists the percent change in platelet count following administration of n-protamine and the selected variants, as well as the factor Xa and factor IIa reversal, as a percent change at 3 minutes post administration of the compound.

[6] = clinical use; cited from earlier work
[7] = Percent change in platelet count after Enoxaparin reversal, canine study; assay type: in vivo; conditions: dogs, agent over 10 seconds
Procedure: as §5

[8] = Platelet and white blood cell count after LMWH reversal, canine study; assay type: in vivo; conditions: dogs, Logiparin
Procedure: In addition to the measurements reported on Table 6, studies were conducted to measure the activated partial thromboplastin time (aPTT), platelet count, and white blood cell count. […] However, the [+18B] variant produced greater aPTT reversal than protamine at the 3, 10 and 30 minute measurements (64%, 95%, and 93%, respectively, as compared to 50%, 83%, and 78%, respectively, for protamine).

[9] = Hemodynamic studies and total toxicity score after LMWH reversal, canine study; conditions: dogs, Logiparin
Procedure: as §3
Total toxicity scores (TTS) were developed that reflected maximum declines in each of four parameters (MAP, CO, VO2 and HR) over the first 5 minutes after reversal. The maximum changes occurring in an individual dog over the first 5 minutes were divided by the standard deviation derived from the entire group of tested animals and the four scores were added, resulting in a TTS for each individual dog. The TTS values for each dog were then summed to obtain an average TTS and SD for each peptide studied. The more negative the value of TTS, the more toxic the compound.

[10] = tested on: standard, unfractionated heparin; assay: Percent reversal of standard heparin anticoagulation by variant peptides and protamine, in vivo canine study, coagulation tests; parameters: species or system dogs; conditions: for Percent reversal of heparin anticoagulation, ACT: dogs, heparin 150 IU/kg IV, agent 1.5 mg/kg IV over 10 seconds
Procedure: Data are expressed as a mean ±1 SD. Statistical analysis using linear regression for determination of correlation coefficients, and analysis of variance (ANOVA) or unpaired two-way Student's t-test; p<0.05 was accepted as statistically significant.
(§1) Anticoagulation reversal was assessed by a number of standard coagulation tests performed upon samples of venous blood: activated clotting time (ACT), prothrombin time (PT), activated partial thromboplastin time (aPTT), thrombin clotting time (TCT), heparin concentration by assay for FXa inhibitory activity (FXa), white cell count (WBC), and platelet counts (PLT). Measurements were made 3 minutes prior to heparin reversal (baseline) and 3 minutes and 30 minutes post-administration of the heparin reversal agent. The "Heparin" row sets forth the observed reversal as a consequence of expected heparin metabolism or degradation alone.

[11] = Platelet and white cell counts after standard heparin reversal, canine study; assay type: in vivo; conditions: dogs, 3 minutes post-reversal, resolved by about 30 minutes
Procedure: as §1

[12] = Platelet count, leukocyte count and bleeding time after LMWH reversal at different rates, canine study; assay type: in vivo, dogs
Procedure: as §2

[13] = Hemodynamic studies and total toxicity score after standard heparin reversal at different rates, dogs
Procedure: Hemodynamic studies were conducted by measuring mean arterial pressure (MAP) in mm Mercury, maximum percent changes in cardiac output (CO) and systemic oxygen consumption (VO2), and heart rate (HR) in beats per minute. Measurements and calculations were made at baseline, before LMWH administration, 3 minutes before reversal, every 30 seconds for 5 minutes after reversal.
as §4

[14] = Hemodynamic studies and total toxicity score after standard heparin reversal, canine study; conditions: dogs
Procedure: As used hereinafter, the peptides will be identified by their total cationic charge value, e.g., [+8], [+16], etc.
Hemodynamic studies were conducted by measuring mean arterial pressure (MAP), heart rate (HR), and maximum percent changes in cardiac output (CO) and systemic oxygen consumption (VO2).
Total toxicity scores (TTS) were developed that reflected maximum declines in each of four parameters (MAP, CO, VO2 and HR) over the first 5 minutes after reversal, the latter being the time of expected greatest adverse hemodynamic effect. The maximum changes occurring in an individual dog over the first 5 minutes were divided by the standard deviation derived from the entire group of tested animals and the four scores were added, resulting in a TTS for each individual dog. The TTS values for each dog were then summed to obtain an average TTS and SD for each peptide studied.

[15] = administered over 10 sec, 3 min
[16] = administered over 10 sec, 10 min
[17] = administered over 10 sec, 30 min
[18] = administered over 3 min, 10 min
[19] = administered over 3 min, 30 min
[20] = dogs, Logiparin, administered over 3 min

For “PR4 S3 RPVR5 PRVSR6 G2 R4 [Protamine [+21], reference compound]”, the “Maximum hemodynamic change, Mean BP” value ([1]; standard heparin 150 IU/kg IV, 5 minutes) was -31 mm Mercury, the “Maximum hemodynamic change, CO” value ([1]; standard heparin, 5 minutes) was -36% and the “Maximum hemodynamic change, HR” value ([1]; standard heparin, 5 minutes) was -27 beats/min. The “Maximum hemodynamic change, VO2” value ([1]; standard heparin, 5 minutes) was -32%, the “Total Toxicity Score” value ([1]; standard unfractionated heparin) was -8.02 ± 5.20 and the “Percent reversal of LMWH anticoagulation, FNa” value [2, 15] was 96%. For the same substance, the “Percent reversal of LMWH anticoagulation, FXa” value [2, 15] was 63%, the “Percent reversal of LMWH anticoagulation, TCT” value [2, 15] was 99% and the “Percent reversal of LMWH anticoagulation, ACT” value [2, 16] was 83%. For the same substance, the “Percent reversal of LMWH anticoagulation, FXa” value [2, 16] was 45%, the “Percent reversal of LMWH anticoagulation, TCT” value [2, 16] was 98% and the “Percent reversal of LMWH anticoagulation, ACT” value [2, 17] was 78%. The “Percent reversal of LMWH anticoagulation, FNa” value [2, 17] was 86%, the “Percent reversal of LMWH anticoagulation, TCT” value [2, 17] was 96% and the “Percent reversal of LMWH anticoagulation, FNa” value ([2]; administered over 3 min, 3 min) was 99%. The “Percent reversal of LMWH anticoagulation, FXa” value ([2]; administered over 3 min, 3 min) was 68%, the “Percent reversal of LMWH anticoagulation, TCT” value ([2]; administered over 3 min, 3 min) was 100% and the “Percent reversal of LMWH anticoagulation, ACT” value [2, 18] was 87%. The “Percent reversal of LMWH anticoagulation, FNa” value [2, 18] was 98%, the “Percent reversal of LMWH anticoagulation, FXa” value [2, 18] was 53% and the “Percent reversal of LMWH anticoagulation, TCT” value [2, 18] was 99%. The “Percent reversal of LMWH anticoagulation, ACT” value [2, 19] was 80%, the “Percent reversal of LMWH anticoagulation, FNa” value [2, 19] was 92% and the “Percent reversal of LMWH anticoagulation, FXa” value [2, 19] was 45%. The “Percent reversal of LMWH anticoagulation, TCT” value [2, 19] was 98%, the “Percent reversal of LMWH anticoagulation, ACT” value ([2]; dogs, Logiparin, agent administered over 10 sec, 3 min post-administration) was 96% and the “Percent reversal of LMWH anticoagulation, ACT” value ([2]; dogs, Logiparin, agent administered over 3 min, 3 min post-administration) was 99%. The “Total Toxicity Score” value ([3]; administered over 10 sec) was -6.4 ± 3.8, the ΔCO ([3]; administered over 10 sec) was -32% and the ΔHr ([3]; administered over 10 sec) was -18 beats per minute. For the same substance, the ΔMAP ([3]; administered over 10 sec) was -32 mm Mercury, the ΔVO2 ([3]; administered over 10 sec) was -26% and the “Total Toxicity Score” value ([3]; administered over 3 min) was -7.2 ± 3.5. For the same substance, the ΔCO ([3]; administered over 3 min) was -28%, the ΔHr ([3]; administered over 3 min) was -36 beats per minute and the ΔMAP ([3]; administered over 3 min) was -18 mm Mercury. The ΔVO2 ([3]; administered over 3 min) was -23%, the “Maximum hemodynamic change, Mean BP” value ([4]; Enoxaparin 100 IU/kg, 5 minutes) was -7 mm Mercury and the “Maximum hemodynamic change, CO” value ([4]; Enoxaparin, 5 minutes) was -23%. For the same substance, the “Maximum hemodynamic change, HR” value ([4]; Enoxaparin, 5 minutes) was -17 beats/min, the “Maximum hemodynamic change, VO2” value ([4]; Enoxaparin, 5 minutes) was -23% and the “Total Toxicity Score (TTS)” value ([4]; Enoxaparin, listed as Prot[+21]) was -5.77. For the same substance, the “Total Toxicity Score (TTS)” value ([4]; Enoxaparin, listed as [+21] n-protamine) was -5.77 ± 3.46, the “Platelet (percent change in platelet count)” value [5] was -54% and the “cases with significant systemic arterial hypertension and pulmonary artery hypertension” value [6] was “about 4%”. The “Platelet (percent change in platelet count)” value [7] was -40%, the “mean decline in platelet count” value [8] was -43% and the “maximum mean increase in pulmonary artery diastolic (PAD) pressure” value [9] was “+10 mm Mercury”. The “maximum mean increase in pulmonary artery systolic (PAS) pressure” value [9] was “+10 mm Mercury”, the ΔHR [9] was -18 beats per minute and the ΔMAP [9] was -32 mm Mercury. The “Total Toxicity Score” value ([9]; first 5 minutes after reversal, 1:1 peptide to LMWH) was -7.6 ± 4.8, the ΔCO ([9]; maximum percent change) was -32% and the ΔVO2 ([9]; maximum percent change) was -26%. The “Percent reversal of heparin anticoagulation, ACT” value ([10]; 3 min post-administration) was 102%, the “Percent reversal of heparin anticoagulation, ACT” value ([10]; 30 min) was 90% and the “Percent reversal of heparin anticoagulation, APTT” value ([10]; same study, 3 min) was 100%. The “Percent reversal of heparin anticoagulation, FNa” value ([10]; same study, 3 min) was 102%, the “Percent reversal of heparin anticoagulation, FXa” value ([10]; same study, 3 min) was 101% and the “Percent reversal of heparin anticoagulation, PT” value ([10]; same study, 3 min) was 84%. For the same substance, the “Percent reversal of heparin anticoagulation, TCT” value ([10]; same study, 3 min) was 101%, the “Percent reversal of heparin anticoagulation, APTT” value ([10]; same study, 30 min) was 127% and the “Percent reversal of heparin anticoagulation, FXa” value ([10]; same study, 30 min) was 96%. For the same substance, the “Percent reversal of heparin anticoagulation, PT” value ([10]; same study, 30 min) was 88%, the “Percent reversal of heparin anticoagulation, TCT” value ([10]; same study, 30 min) was 100% and the platelet counts [11] was “thrombocytopenia”. The “Maximal decline in leukocyte count” value ([12]; dogs, Logiparin, administered over 10 sec) was -3%, the “Maximal decline in leukocyte count” value [12, 20] was -26% and the Maximal thrombocytopenia [12, 20] was -32%. For the same substance, the bleeding time ([12]; selected animals, given over a 3 minute interval) was ≤ 8 min, the “Total Toxicity Score” value ([13]; administered over 10 sec) was -7.1 ± 4.63 and the “Total Toxicity Score” value ([13]; administered over 3 min) was -5.66 ± 4.04. For the same substance, the ΔHR [14] was -29, the ΔMAP ([14]; average maximum decline in first five minutes after peptide administration) was -34 and the “average total toxicity score (TTS±SD)” value ([14]; first 5 minutes after reversal, more negative = more toxic) was -7.0±5.2. For the same substance, the ΔCO ([14]; maximum percent change) was -38% and the ΔVO2 ([14]; maximum percent change) was -35%.

Source: patent publication US5919761A, “Peptides for heparin and low molecular weight heparin anticoagulation reversal” (The Board of Regents of the University of Michigan, priority 1995, dated 1999)
